Laboratory results taken from patent publication US20190016816A1 (APTEVO RESEARCH AND DEVELOPMENT, published 2019).

How the values were obtained:
human CD137 on cells = human CD137 on cells (human, UniProt Q07011 24-255); test: cell-based or functional assay
FcγRIIIb (CD16b) = molecular target: T1, FcγRIIIb (CD16b) (UniProt O75015 17-200, limits assumed); test: flow cytometry, CHO cells stably expressing CD16b, fluorescent anti-human IgG secondary, MFI (mean)
T1 construct: whole, on cells
Text: ALG.APV-210 contains mutations introduced to prevent interaction with Fcγ receptors (FcγR) that could lead to FcγR-mediated T-cell activation or ADCC, ADCP, CDC etc. Binding of ALG.APV-210 was therefore tested on CHO cell transfectants stably expressing the following FcγR: FcγRI (CD64), FcγRIIa (CD32a His131), FcγRIIb (CD32b), FcγRIIIa (CD16a Val158 and CD16a Phe158), and FcγRIIIb (CD16b). Untransfected CHO cells were used as negative control. A control human IgG1 molecule was used as a positive control. Different concentrations of ALG.APV-210 or control IgG1 were incubated with the FcγR-expressing cell lines, washed, and labeled with a secondary anti-human IgG reagent. Binding of ALG.APV-210 and the control IgG1 was detected by flow cytometry.

[1] = molecular target: T2, cynomolgus CD137 on cells (cynomolgus macaque, UniProt A9YYE7 24-254); test: flow cytometry, MFI of the CD137 positive cells; cynomolgus CD8 T cells, MFI of CD137 positive cells
T2 construct: whole, on cells; also called CHO-K1/cynomolgus CD137 cell line; cynomolgus monkey CD137 on CD3-stimulated primary CD8 T cells
Protocol: Following 48 h of incubation with or without CD3, human and cynomolgus PBMC were harvested, pooled, recounted and diluted in FACS buffer (PBS+0.5% BSA, 0.05% NaN₃) to a concentration of 5×10⁶ cells/mL. 50 μL (0.25×10⁶ cells) of cell solution was added to a 96-well FACS staining plate (Falcon #351190). Following 10 min of Fc-blocking in RT using Beriglobin (hIgG, 200 μg/mL), cells were washed in FACS buffer and then incubated for 1 h in 4° C. with 100 μL of the biotinylated ALG.APV-210 or negative control. […] Cells were analysed for ALG.APV-210 binding using flow cytometry by gating on viable, single cells expressing CD3 and CD8. MFI values (FMO subtracted) from 2 independent experiments as well as normalized pooled data from 2 experiments and EC₅₀-values were determined and plotted using GraphPad Prism 7, non-linear regression log (agonist) vs. normalized response—variable slope, n=6 donors/group.
ALG.APV-210 binding was also assessed by looking at the percentage of CD8 T cells bound by ALG.APV-210. […] The binding EC₅₀ values were also calculated on the MFI of the CD137 positive cells, and the results was an EC₅₀ of 0.17 nM for binding to human CD137 and 0.20 nM for cynomolgus monkey CD137.

human 5T4 on cells = molecular target: T3, human 5T4 on cells (human, UniProt Q13641 32-420); test: flow cytometry, HCT-116 cells, streptavidin-PE, normalized MFI of 2 pooled experiments; HCT-116 cells
T3 construct: also called TPBG; hu5T4
T3 sequence: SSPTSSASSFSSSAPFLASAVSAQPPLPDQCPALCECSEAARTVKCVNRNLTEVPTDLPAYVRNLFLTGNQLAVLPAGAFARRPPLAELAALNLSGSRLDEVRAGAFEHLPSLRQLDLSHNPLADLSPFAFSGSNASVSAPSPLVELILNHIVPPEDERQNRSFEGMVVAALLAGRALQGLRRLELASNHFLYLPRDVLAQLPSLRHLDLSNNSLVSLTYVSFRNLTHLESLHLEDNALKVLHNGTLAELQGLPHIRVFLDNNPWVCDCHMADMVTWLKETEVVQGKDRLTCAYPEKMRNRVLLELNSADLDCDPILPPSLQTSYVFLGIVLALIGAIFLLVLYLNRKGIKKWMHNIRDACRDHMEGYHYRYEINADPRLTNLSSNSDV
Protocol: Prior to the FACS staining, all cell lines were characterized for their 5T4 expression levels using a receptor density kit (Quantum Simply Cellular, anti-human IgG, Bangs Laboratories, Inc). Adherent cell lines were cultured according to their supplier's instructions and were harvested from their cell culture flasks using Trypsin/EDTA, counted in R10 medium in a Burker chamber, and diluted in FACS buffer (PBS+0.5% BSA, 0.05% NaN₃) to a concentration of 4×10⁶ cells/mL. 50 μL (0.20×10⁶) of cell solution was added to a 96-well FACS staining plate (Falcon #351190). Cells were incubated for 20 min in 4° C. with 50 μL of the biotinylated ALG.APV-210 (2× final concentration). The antibodies were added in a serial dilution starting at 20 μg/mL titrating down in a 12 step ½ dilution down to 0.010 μg/mL. Following 2× washing with FACS buffer, cells were incubated for 30 min in 4° C. with 100 μL of a secondary antibody (streptavidin-PE, BD #554061, diluted 1/500). […] Cells were analysed for ALG.APV-210 binding using flow cytometry (FACSVerse) by gating on single cells. MFI values (secondary antibody only subtracted) from 1 out of 2 independent experiments, as well as normalized data and EC₅₀-values of pooled data from 2 experiments were determined and plotted using GraphPad Prism 7, non-linear regression log (agonist) vs. normalized response—variable slope.

Sequence of human CD137 on cells (Q07011 24-255 limits assumed): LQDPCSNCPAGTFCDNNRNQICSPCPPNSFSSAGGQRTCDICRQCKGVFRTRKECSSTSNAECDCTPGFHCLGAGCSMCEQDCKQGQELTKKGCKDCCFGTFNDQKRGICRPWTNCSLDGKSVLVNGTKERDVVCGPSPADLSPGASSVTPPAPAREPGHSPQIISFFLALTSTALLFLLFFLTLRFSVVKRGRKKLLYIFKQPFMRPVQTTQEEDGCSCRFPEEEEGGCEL
T2 sequence (A9YYE7 entry or part of it): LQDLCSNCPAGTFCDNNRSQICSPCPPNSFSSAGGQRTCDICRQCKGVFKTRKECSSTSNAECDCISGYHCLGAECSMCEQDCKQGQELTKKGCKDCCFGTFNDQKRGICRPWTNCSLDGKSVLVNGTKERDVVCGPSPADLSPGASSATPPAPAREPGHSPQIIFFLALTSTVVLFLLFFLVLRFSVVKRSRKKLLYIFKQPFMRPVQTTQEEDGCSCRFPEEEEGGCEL
T1 sequence (O75015 17-200 limits assumed): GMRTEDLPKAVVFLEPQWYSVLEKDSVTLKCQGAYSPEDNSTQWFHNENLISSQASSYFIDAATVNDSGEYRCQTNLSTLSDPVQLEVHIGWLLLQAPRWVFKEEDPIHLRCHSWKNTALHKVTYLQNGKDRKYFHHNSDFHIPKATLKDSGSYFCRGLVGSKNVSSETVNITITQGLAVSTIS

B1: ALG.APV-210 (bispecific antibody)
chain: EVQLLESGGGLVQPGGSLRLSCAASGFTFSHGSMYWVRQAPGKGLEWVSSISSGSGSTYYADSVKGRFTISHDNSKNTLYLQMNSLRAEDTAVYYCARSSYYGSYYSIDYWGQGTLVTVSSGGGGSGGGGSGGGGSGGGGSDIQMTQSPSSLSASVGDRVTITCRASQSISSYLNWYQQKPGKAPKLLIYAASSLQSGVPSRFSGSGSGTDFTLTISSLQPEDFATYYCQQYYDNLPTFGQGTKLEIKEPKSSDKTHTCPPCPAPEAAGAPSVFLFPPKPKDTLMISRTPEVTCVVVDVSHEDPEVKFNWYVDGVEVHNAKTKPREEQYNSTYRVVSVLTVLHQDWLNGKEYKCAVSNKALPAPIEKTISKAKGQPREPQVYTLPPSRDELTKNQVSLTCLVKGFYPSDIAVEWESNGQPENNYKTTPPVLDSDGSFFLYSKLTVDKSRWQQGNVFSCSVMHEALHNHYTQKSLSLSPGSGGGGSGGGGSGGGGSPSEVQLLESGGGLVQPGGSLRLSCAASGFTFSSYAMSWVRQAPGKCLEWVSAISGSGGSTYYADSVKGRFTISRDNSKNTLYLQMNSLRAEDTAVYYCARYYGGYYSAWMDYWGQGTLVTVSSGGGGSGGGGSGGGGSGGGGSDIQMTQSPSSLSASVGDRVTITCRASQSISSFLNWYQQKPGKAPKLLIYAASSLQSGVPSRFSGSGSGTDFTLTISSLQPEDSATYYCQQTYGYLHTFGCGTKLEIKR
notes: Optimized ADAPTIR scFv-Fc-scFv homodimer with stabilizing disulfide in the 1210 scFv; also called 5T4-CD137 bispecific antibody
EC50 (nM), CD137 reporter assay with CHO/5T4 cells (human CD137 on cells): 0.0092 nM
EC50 (nM), CD137 reporter assay with H1975 cells (human CD137 on cells): 0.037 nM
EC50 (nM), CD137 reporter assay with MDA.MB-231 cells (human CD137 on cells): 0.054 nM
EC50 (nM), CD137 reporter assay with TF-1 cells (human CD137 on cells): 0.063 nM
binding result (FcγRIIIb (CD16b)): no binding (tested: 1000 nM)

B2: biotinylated ALG.APV-210 (bispecific antibody)
chain: B1 chain
notes: also called ALG.APV-210 (biotinylated for FACS detection)
EC50 [1]: 0.2 nM
EC50 (human 5T4 on cells): 16 nM
